Measured values reported in patent US20210363266A1 (JIANGSU HENGRUI MEDICINE, published 2021).
Where two headings read alike, the source gives them in different places.

B1: murine mAb B1E10 (antibody, V domains shown)
VH: EVQLVESGGGLVEPGGSLKLSCAASGFTFGDYYMYWVRQTPEKRLEWVATISDGGSYTYYPDNVKGRFTISRDNAKNSLDLQMSHLKSEDTAMYYCARYYSKALYAMDYWGRGTSVTVSS
VL: DIVLTQSPASLAVSLGQRATLSCRASKSVSTSGFSYIHWYQQKPGQPPKLLIYTASNLESGVPARFSGSGSGTDFTLNIHPVEEEDAATYYCQHSRELPLTFGAGTKLEVK
notes: Murine hybridoma antibody
B2: murine mAb B1E7 (antibody, V domains shown)
VH: EVQLQQSGAELVRAGSSVEMSCKASGYTFTSYGLNWVKQRPGQGLEWIGYINPGSGYTKYNEKFEGKTTLTVDKSSSTVYMQLRSLTSEDSAVYFCARWGLGRNWNFAVWGTGTTVTVSS
VL: DIVLTQSPASLAVSLGQRATMSCRASESVDSYGNTFMHWYQQKPGQPPKLLIYRASNLESGIPARFSGSGSGTDFTLTINPVEADDVATYYCQQSNEDPLTFGSGTKLEIK
notes: Murine hybridoma antibody
B3: murine mAb B1A7 (antibody, V domains shown)
VH: QVTLKESGPGILQPSQTLSLTCSFSGFSLSTSGMGVGWIRQPSGKGLEWLAHIWWDDVKRYNPALKSRLTISKDTSSSQVFLKIASVDTADTATYYCAQMTSSVFAYWGQGTLVTVSA
VL: DIVLTQSPDSLAVSLGQRATISCRASESVDSYGHSFMHWYQQKPGQPPKLLIYRASNLESGIPARFSGSGSRTDFTLTINVVEADDVATYYCHQSYEEPWTFGGGTKLEIK
notes: Murine hybridoma antibody
B4: chimeric antibody ChB1E7 (antibody, V domains shown)
VH: B2 VH
VL: B2 VL
B5: chimeric antibody ChB1E10 (antibody, V domains shown)
VH: B1 VH
VL: B1 VL
B6: MOR7480 (Pfizer) (antibody, V domains shown)
VH: QVQLVQSGAEVKKPGESLKISCKGSGYSFSTYWISWVRQMPGKGLEWMGKIYPGDSYTNYSPSFQGQVTISADKSISTAYLQWSSLKASDTAMYYCARGYGIFDYWGQGTLVTVSS
VL: DIELTQPPSVSVAPGQTARISCSGDNIGDQYAHWYQQKPGQAPVVVIYQDKNRPSGIPERFSGSNSGNTATLTISGTQAEDEADYYCATYTGFGSLAVFGGGTKLTVL
B7: humanized antibody huB1E7 (VH-c heavy chain and VL-c light chain) (antibody, human IgG2, kappa, V domains shown)
VH: EVQLVQSGAEVKKPGSSVKVSCKASGYTFTSYGLNWVRQAPGQGLEWMGYINPGSGYTKYNEKFEGRVTITADKSTSTAYMELSSLRSEDTAVYYCARWGLGRNWNFAVWGQGTLVTVSS
VL: DIVMTQSPDSLAVSLGERATINCRASESVDSYGNTFMHWYQQKPGQPPKLLIYRASNLESGVPDRFSGSGSGTDFTLTISSLQAEDVAVYYCQQSNEDPLTFGQGTKLEIKR
notes: also called huB1E7-IgG1
B8: humanized antibody huB1E10 (VH-c heavy chain and VL-c light chain) (antibody, human IgG2, kappa, V domains shown)
VH: EVQLVESGGGVVQPGRSLRLSCAASGFTFGDYYMYWVRQAPGKGLEWVATISEGGSYTYYPDNVKGRFTISRDNAKNTLYLQMNSLRAEDTAVYYCARYYSKALYAMDYWGRGTLVTVSS
VL: EIVLTQSPATLSLSPGERATLSCRASKSVSTSGFSYIHWYQQKPGQPPRLLIYTASNLESGVPARFSGSGSGTDFTLTISSLEPEDFAVYYCQHSRELPLTFGQGTKLEVKR
notes: also called huB1E10-IgG1

Columns and labels:
[1] = target: T1, human 4-1BB His protein (Sinobiological, Beijing #10041-H08H) (human, UniProt Q07011 24-186, biotinylated in the capture ELISA (sites not given)); experiment: capture ELISA, antibody captured, biotinylated 4-1BB-his
T1 construct: Bought protein; also called biotinylated 4-1BB-his protein; not shown: His tag
Method: The goat anti-mouse IgG secondary antibody (Jackson Immuno Research, cat #115-006-071) was diluted to a concentration of 2 μg/ml with PBS buffer, pH 7.4, added into a 96-well microtiter plate at 100 μl/well, and placed in an incubator at 37° C. for 2 hours. The plate was washed once with PBST, 200 μl/well of 5% skim milk (skim milk powder, Bright Dairy) blocking solution diluted with PBST was added, and incubated at 37° C. for 2 hours or at 4° C. overnight (16-18 hours) for blocking. After the blocking was finished, the blocking solution was discarded and the plate was washed 4 times with PBST.
The test mouse sera or antibodies were diluted to various concentrations with 5% NHS sample dilution solution (2.5% skim milk in PBST), incubated at room temperature for 40 minutes, added into the plate at 100 μl/well, and incubated at 37° C. for 40 minutes. After the incubation, the plate was washed 4 times with PBST, 100 μl/well of the biotinylated 4-1BB-his protein (Sinobiological, Beijing #10041-H08H) diluted with the sample dilution solution was added, and incubated at 37° C. for 40 minutes. After the incubation, the plate was washed 4 times with PBST, 100 μl/well of HRP-labeled streptavidin (Jackson Immuno Research, cat #016-030-084) diluted with PBST was added, and incubated at 37° C. for 40 minutes. The plate was washed 4 times with PBST, 100 μl/well of TMB chromogenic substrate (Huzhou Innoreagents Biotechnology Co., Ltd.) was added, incubated at room temperature for 10-15 min in the dark, and 50 μl/well 1M H₂SO₄ was added to terminate the reaction. The absorbance was read at 450 nm under a microplate reader (Beijing Prang New Technology Co., Ltd., Model DNM-9602) and the resulting data were analyzed. The capture ELISA results of three hybridoma mouse antibodies and the Pfizer reference antibody MOR7480 and the BMS reference antibody Urelumab were shown in FIG. 1.

[2] = target: human 4-1BB on the reporter cell strain HEK293F-h4-1BB-NFkB (human, UniProt Q07011 24-255); experiment: cell-based or functional assay
Chain of human 4-1BB on the reporter cell strain HEK293F-h4-1BB-NFkB (Q07011 24-255): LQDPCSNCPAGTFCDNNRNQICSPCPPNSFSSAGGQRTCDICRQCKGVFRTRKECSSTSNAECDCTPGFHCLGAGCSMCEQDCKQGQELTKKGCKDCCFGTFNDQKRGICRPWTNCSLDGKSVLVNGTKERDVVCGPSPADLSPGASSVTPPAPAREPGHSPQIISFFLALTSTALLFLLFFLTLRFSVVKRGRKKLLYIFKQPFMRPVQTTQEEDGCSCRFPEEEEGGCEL

[3] = target: T1, human 4-1BB His protein …; experiment: blocking ELISA: 4-1BB-his coated, antibody varied, competitor 4-1BBL-Fc at 0.8 ng/ml
Method: The 4-1BB-his protein was diluted to a concentration of 2 μg/ml with a carbonate buffer pH 9.6, and added into a 96-well microtiter plate at a volume of 100 μl/well, and placed in an incubator at 37° C. for 2 hours. The plate was washed once with PBST, 200 μl/well of 5% skim milk (skim milk powder, Bright Dairy) blocking solution diluted with PBST was added, and incubated at 37° C. for 2 hours or at 4° C. overnight (16-18 hours) for blocking. After the blocking was finished, the blocking solution was discarded and the plate was washed 4 times with PBST.
The test mouse sera or antibodies and internal control 4-1BBL were diluted to various concentrations with a sample diluent solution (2.5% skim milk in PBST), added into a plate at 100 μl/well, and incubated in an incubator at 37° C. for 40 minutes. After the incubation, the plate was washed 4 times with PBST, 100 μl/well of 0.8 ng/ml 4-1BBL-Fc (Acro, #41L-H5257) protein diluted with a sample dilution solution was added, and incubated at 37° C. for 40 minutes. […] The absorbance was read at 450 nm under a microplate reader (Beijing Prang New Technology Co., Ltd., Model DNM-9602) and the resulting data were analyzed. […]

[4] = target: T1, human 4-1BB His protein …; experiment: SPR Biacore T200, antibody amine-coupled, 4-1BB His as analyte, 1:1 model
Method: (§1) The recombinant anti-4-1BB antibodies to be tested of the present application were covalently linked to CMS (GE) chip by NHS standard amino coupling method with a kit available from Biacore. Then, a series of gradient concentrations of human 4-1BB His protein (Sinobiological, Beijing #10041-H08H) diluted in the same buffer were injected at a flow rate of 10 μL/min. Regeneration was performed with regeneration reagents provided in the kit. Antigen-antibody binding kinetics were followed for 3 minutes and dissociation kinetics were followed for 10 minutes. The resulting data were analyzed using 1:1 (Langmuir) binding model with BIAevaluation software available from GE.

[5] = target: T1, human 4-1BB His protein …; experiment: as above; remark: listed apart in the source
Method: as §1

[6] = target: T1, human 4-1BB His protein …; experiment: SPR Biacore T200

| EC50 [1] | luciferase activity [2] | EC50 [3] | Kd [4] | koff [4] | kon [4] | Kd [5] | koff [5] | kon [5] | fold affinity against the reference antibody MOR7480 [6] | Binder |
| --- | --- | --- | --- | --- | --- | --- | --- | --- | --- | --- |
| 0.881 µg/mL | 2520 | – | – | – | – | – | – | – | – | B1 |
| 0.332 µg/mL | 1100 | 0.592 µg/mL | – | – | – | – | – | – | – | B2 |
| 0.0559 µg/mL | 965 | 0.417 µg/mL | – | – | – | – | – | – | – | B3 |
| – | – | – | 1.48 nM | 0.006 s⁻¹ | 4.05e+06 M⁻¹ s⁻¹ | – | – | – | – | B4 |
| – | – | – | 0.423 nM | 0.000542 s⁻¹ | 1.28e+06 M⁻¹ s⁻¹ | – | – | – | – | B5 |
| 0.084 µg/mL | – | – | 0.417 nM | 0.000336 s⁻¹ | 805000 M⁻¹ s⁻¹ | 0.417 nM | 0.000336 s⁻¹ | 805000 M⁻¹ s⁻¹ | – | B6 |
| – | – | – | – | – | – | 1.95 nM | 0.00663 s⁻¹ | 3.39e+06 M⁻¹ s⁻¹ | – | B7 |
| – | – | – | – | – | – | 0.267 nM | 0.00263 s⁻¹ | 9.85e+06 M⁻¹ s⁻¹ | ~2 fold | B8 |
